Laboratory results as given in article PMC4015666 (Journal of Diabetes Investigation, 2013).

Key:
[1] = design: species or system healthy Japanese adult males; settings: in vivo
[2] = Hypoglycemia monitoring after insulin lispro injection; format: in vivo, healthy Japanese adult males; settings: 1.5 or 2.0 U s.c. abdomen, 12 participants, three tests each
[3] = 0.025‐U/kg dose; cited from earlier work

In the case of insulin lispro, the “Bioequivalence of AUC0–∞” value [1] is reported as “bioequivalent”, the “Bioequivalence of Cmax” value [1] is reported as “bioequivalent” and the “Bioequivalence of Tmax” value [1] is reported as “bioequivalent”. The “participants who developed severe hypoglycemia (<50 mg/dL)” value [2] was “None”, the “half‐life” value [3] was 53 min and the “time to the maximum insulin concentration (Tmax)” value [3] was “approximately 37 min”.
